PMC10640585, “The E3 ligase Riplet promotes RIG-I signaling independent of RIG-I oligomerization” (Nature Communications, 2023)
One block for each binder: values may come before it.

Columns and labels:
[1] = target: T1, biotinylated Avi-tagged RIG-I (human, UniProt O95786 1-925, biotin on the Avi tag (by BirA)); assay: SPR; biotinylated RIG-I pre-incubated with p3dsRNA24 (2.4:1, 4 °C overnight; two RIG-I on one RNA) immobilised on streptavidin SADH chip; Riplet constructs 0.125-10 µM in HBS-EP+, 50 µl/min, dissociation 180 s, OneStep mode, 1:1 model; details: both partners purified
T1 construct: RIG-I (Retinoic acid inducible gene-I), human, full-length; Immobilised on the SPR chip as apo protein or pre-incubated with p3SLR14 (1:1.5) or p3dsRNA24 (2.4:1; two RIG-I on one RNA); also called Avi-RIG-I; biotinylated RIG-I; source: E. coli Rosetta 2(DE3), purified (Ni-NTA, ULP1, heparin, size exclusion), biotinylated by BirA, size exclusion; not shown: 6xHis, N-terminal, cleaved; SUMO, …
T1 sequence (looked up): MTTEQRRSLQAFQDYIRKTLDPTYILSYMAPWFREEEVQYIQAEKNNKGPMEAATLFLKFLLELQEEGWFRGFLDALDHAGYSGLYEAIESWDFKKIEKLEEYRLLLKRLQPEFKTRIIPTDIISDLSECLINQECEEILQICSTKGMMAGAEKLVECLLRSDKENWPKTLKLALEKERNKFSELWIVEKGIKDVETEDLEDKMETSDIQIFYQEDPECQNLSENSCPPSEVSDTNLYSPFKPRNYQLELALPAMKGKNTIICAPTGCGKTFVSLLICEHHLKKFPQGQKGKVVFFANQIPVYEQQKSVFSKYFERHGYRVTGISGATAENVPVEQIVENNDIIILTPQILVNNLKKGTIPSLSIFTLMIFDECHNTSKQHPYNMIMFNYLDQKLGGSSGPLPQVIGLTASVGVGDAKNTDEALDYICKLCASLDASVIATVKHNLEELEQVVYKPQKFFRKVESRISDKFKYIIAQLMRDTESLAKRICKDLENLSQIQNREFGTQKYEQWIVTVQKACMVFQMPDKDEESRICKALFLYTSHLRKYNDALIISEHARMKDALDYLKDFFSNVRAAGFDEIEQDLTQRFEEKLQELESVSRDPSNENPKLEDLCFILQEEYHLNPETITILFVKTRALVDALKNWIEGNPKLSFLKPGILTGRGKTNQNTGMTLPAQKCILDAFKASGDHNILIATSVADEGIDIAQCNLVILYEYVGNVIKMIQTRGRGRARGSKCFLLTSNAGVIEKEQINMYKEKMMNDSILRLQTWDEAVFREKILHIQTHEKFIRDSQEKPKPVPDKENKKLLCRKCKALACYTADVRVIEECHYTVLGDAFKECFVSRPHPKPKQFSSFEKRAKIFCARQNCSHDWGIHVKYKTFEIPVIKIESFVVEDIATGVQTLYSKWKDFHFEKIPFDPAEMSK

[2] = target: T1, biotinylated Avi-tagged RIG-I; assay: SPR; apo biotinylated RIG-I immobilised on streptavidin SADH chip; Riplet constructs 0.125-10 µM in HBS-EP+, 50 µl/min, dissociation 180 s, OneStep mode, 1:1 model; details: both partners purified
[3] = target: T2, RIG-I;Riplet (human;human, UniProt O95786;Q8IUD6 1-925;1-432, |); assay: cryo-EM; end-end complex, 2 RIG-I:1 RNA:1 Riplet dimer, 3.2 A; EMSA: RNA + RIG-I 30 min RT, then Riplet 30 min RT, 6% native PAGE, GelRed; protein storage buffer 25 mM HEPES pH 7.4, 200 mM NaCl, 5% glycerol, 5 mM BME (bindi); details: protein: recombinant;recombinant, tags: N-terminal 6xHis-SUMO, removed by ULP1;N-terminal 6xHis-SUMO, chain copies: 2;2, blunt
T2 sequence 1: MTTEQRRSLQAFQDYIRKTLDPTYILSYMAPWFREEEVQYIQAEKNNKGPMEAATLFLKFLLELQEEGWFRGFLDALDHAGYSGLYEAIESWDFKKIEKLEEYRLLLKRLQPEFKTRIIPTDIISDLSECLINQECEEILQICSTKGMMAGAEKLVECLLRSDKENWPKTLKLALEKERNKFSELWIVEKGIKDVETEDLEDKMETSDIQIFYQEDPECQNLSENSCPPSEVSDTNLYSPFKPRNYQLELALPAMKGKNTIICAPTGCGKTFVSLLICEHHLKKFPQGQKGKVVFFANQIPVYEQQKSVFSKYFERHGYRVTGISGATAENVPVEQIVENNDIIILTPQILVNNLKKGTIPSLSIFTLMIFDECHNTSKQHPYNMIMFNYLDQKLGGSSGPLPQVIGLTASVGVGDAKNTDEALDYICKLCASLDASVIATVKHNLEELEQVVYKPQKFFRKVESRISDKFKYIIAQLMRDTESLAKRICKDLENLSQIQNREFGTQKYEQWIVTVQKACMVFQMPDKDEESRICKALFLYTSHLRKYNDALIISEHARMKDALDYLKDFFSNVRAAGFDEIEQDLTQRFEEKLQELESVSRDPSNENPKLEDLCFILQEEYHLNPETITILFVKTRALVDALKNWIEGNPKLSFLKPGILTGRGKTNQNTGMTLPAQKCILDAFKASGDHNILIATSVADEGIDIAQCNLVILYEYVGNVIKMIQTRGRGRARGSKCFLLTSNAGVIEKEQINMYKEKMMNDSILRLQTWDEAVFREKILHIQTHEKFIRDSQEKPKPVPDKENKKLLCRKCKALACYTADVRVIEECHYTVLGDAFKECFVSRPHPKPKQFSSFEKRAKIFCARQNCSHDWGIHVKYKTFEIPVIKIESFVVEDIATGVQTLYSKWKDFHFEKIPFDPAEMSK
T2 sequence 2: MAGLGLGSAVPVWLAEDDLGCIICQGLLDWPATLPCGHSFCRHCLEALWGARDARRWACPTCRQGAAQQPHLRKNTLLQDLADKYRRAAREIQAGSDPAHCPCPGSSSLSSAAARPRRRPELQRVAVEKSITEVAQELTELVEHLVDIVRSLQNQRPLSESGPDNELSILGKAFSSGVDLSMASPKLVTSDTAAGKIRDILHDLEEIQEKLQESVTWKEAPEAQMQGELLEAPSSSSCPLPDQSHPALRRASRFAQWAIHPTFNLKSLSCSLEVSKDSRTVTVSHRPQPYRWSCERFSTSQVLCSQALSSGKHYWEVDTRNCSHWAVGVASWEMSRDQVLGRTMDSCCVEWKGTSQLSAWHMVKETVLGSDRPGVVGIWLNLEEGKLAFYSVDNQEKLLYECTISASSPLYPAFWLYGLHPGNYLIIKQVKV

[4] = target: T3, biotinylated Avi-tagged RIG-I (Retinoic acid inducible gene-I) (human, UniProt O95786 1-925, biotin on the Avi tag (by BirA)); assay: SPR; biotinylated RIG-I pre-incubated with p3SLR14 (1:1.5, 4 °C overnight) immobilised on a streptavidin SADH chip; Riplet constructs as analyte in HBS-EP+, 50 µl/min, dissociation 180 s, OneStep mode, 1:1 model; details: both partners purified
T3 construct: RIG-I, human, full-length protein; Used alone (apo), pre-incubated with the RNA p3SLR14 (one RIG-I per RNA) or with p3dsRNA24 (two RIG-I per RNA); also called Avi-RIG-I; Apo-RIG-I; source: E. coli Rosetta 2(DE3), purified (Ni-NTA, heparin, SEC), biotinylated by BirA, SEC; not shown: His6, N-terminal, cleaved; SUMO, N-terminal, cleaved
T3 sequence (looked up): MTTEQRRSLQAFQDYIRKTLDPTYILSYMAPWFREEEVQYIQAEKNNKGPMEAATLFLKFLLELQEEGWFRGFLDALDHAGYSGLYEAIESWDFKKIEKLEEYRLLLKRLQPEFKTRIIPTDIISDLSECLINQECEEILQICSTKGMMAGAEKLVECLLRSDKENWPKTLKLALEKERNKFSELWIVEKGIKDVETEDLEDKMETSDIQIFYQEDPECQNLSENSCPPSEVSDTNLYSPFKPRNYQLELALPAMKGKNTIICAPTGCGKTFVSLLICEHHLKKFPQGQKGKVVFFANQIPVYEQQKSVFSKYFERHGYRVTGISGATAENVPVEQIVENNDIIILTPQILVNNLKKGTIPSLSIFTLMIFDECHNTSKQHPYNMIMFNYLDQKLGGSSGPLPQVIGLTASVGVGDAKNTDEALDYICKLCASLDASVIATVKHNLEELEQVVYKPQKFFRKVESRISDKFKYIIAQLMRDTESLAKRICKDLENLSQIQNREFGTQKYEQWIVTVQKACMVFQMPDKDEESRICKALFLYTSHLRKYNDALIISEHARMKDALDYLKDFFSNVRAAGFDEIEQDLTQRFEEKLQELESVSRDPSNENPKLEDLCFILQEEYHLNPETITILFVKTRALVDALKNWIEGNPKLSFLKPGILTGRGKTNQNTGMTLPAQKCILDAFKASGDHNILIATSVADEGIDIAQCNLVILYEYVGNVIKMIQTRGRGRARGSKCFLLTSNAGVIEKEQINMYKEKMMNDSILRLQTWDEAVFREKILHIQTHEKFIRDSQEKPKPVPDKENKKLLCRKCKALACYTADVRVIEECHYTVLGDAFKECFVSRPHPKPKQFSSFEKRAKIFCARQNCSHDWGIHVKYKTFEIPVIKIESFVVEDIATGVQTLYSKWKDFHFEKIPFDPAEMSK

[5] = target: T3, biotinylated Avi-tagged RIG-I (Retinoic …); assay: SPR; biotinylated RIG-I pre-incubated with p3dsRNA24 (2.4:1, 4 °C overnight; two RIG-I per RNA) immobilised on a streptavidin SADH chip; Riplet constructs as analyte in HBS-EP+, 50 µl/min, dissociation 180 s, OneStep mode, 1:1 model; details: both partners purified
[6] = target: T3, biotinylated Avi-tagged RIG-I (Retinoic …); assay: SPR; biotinylated apo-RIG-I (no RNA) immobilised on a streptavidin SADH chip; Riplet constructs as analyte in HBS-EP+, 50 µl/min, dissociation 180 s, OneStep mode, 1:1 model; details: both partners purified

Kd [1]: 0.0066 µM
Kd [2]: 0.7 µM
B1: Riplet, full-length (Riplet-FL) (enzyme, human, UniProt Q8IUD6 1-432, looked up)
chain: MAGLGLGSAVPVWLAEDDLGCIICQGLLDWPATLPCGHSFCRHCLEALWGARDARRWACPTCRQGAAQQPHLRKNTLLQDLADKYRRAAREIQAGSDPAHCPCPGSSSLSSAAARPRRRPELQRVAVEKSITEVAQELTELVEHLVDIVRSLQNQRPLSESGPDNELSILGKAFSSGVDLSMASPKLVTSDTAAGKIRDILHDLEEIQEKLQESVTWKEAPEAQMQGELLEAPSSSSCPLPDQSHPALRRASRFAQWAIHPTFNLKSLSCSLEVSKDSRTVTVSHRPQPYRWSCERFSTSQVLCSQALSSGKHYWEVDTRNCSHWAVGVASWEMSRDQVLGRTMDSCCVEWKGTSQLSAWHMVKETVLGSDRPGVVGIWLNLEEGKLAFYSVDNQEKLLYECTISASSPLYPAFWLYGLHPGNYLIIKQVKV
notes: Only the PrySpry domain is resolved in the cryo-EM maps; also called Riplet WT; E3 ligase Riplet; source: E. coli Rosetta 2(DE3), purified (Ni-NTA, ULP1 digestion, size exclusion); not shown: 6xHis, N-terminal, cleaved; SUMO, N-terminal, cleaved

B2: p3dsRNA24 (dsRNA)
RNA 1: GGACGUACGUUUCGCGACUGUAGA
RNA 2: UCUACAGUCGCGAAACGUACGUCC
modifications: 5'-triphosphate on both strands
binding result [3]: binds

Kd [4]: 3.6 µM
koff [4]: 0.18 s⁻¹
kon [4]: 51000 M⁻¹ s⁻¹
koff [5]: 0.19 s⁻¹
kon [5]: 130000 M⁻¹ s⁻¹
Kd [6]: 3.1 µM
koff [6]: 0.18 s⁻¹
kon [6]: 60000 M⁻¹ s⁻¹
B3: Riplet-PrySpry (249-432) (domain or fragment, human, UniProt Q8IUD6 249-432, looked up)
chain: RRASRFAQWAIHPTFNLKSLSCSLEVSKDSRTVTVSHRPQPYRWSCERFSTSQVLCSQALSSGKHYWEVDTRNCSHWAVGVASWEMSRDQVLGRTMDSCCVEWKGTSQLSAWHMVKETVLGSDRPGVVGIWLNLEEGKLAFYSVDNQEKLLYECTISASSPLYPAFWLYGLHPGNYLIIKQVKV
notes: Riplet, human, PrySpry domain, residues 249-432; also called Pspry; source: E. coli Rosetta 2(DE3), purified (Ni-NTA, SEC); not shown: His6, N-terminal, cleaved; SUMO, N-terminal, cleaved

Kd [1]: 1.4 µM
B4: Riplet-PrySpry (249-432) (domain or fragment, human, UniProt Q8IUD6 249-432, looked up)
chain: RRASRFAQWAIHPTFNLKSLSCSLEVSKDSRTVTVSHRPQPYRWSCERFSTSQVLCSQALSSGKHYWEVDTRNCSHWAVGVASWEMSRDQVLGRTMDSCCVEWKGTSQLSAWHMVKETVLGSDRPGVVGIWLNLEEGKLAFYSVDNQEKLLYECTISASSPLYPAFWLYGLHPGNYLIIKQVKV
notes: Riplet, human, PrySpry domain, residues 249-432 (RING and CC domains deleted); pET-SUMO-Riplet-PrySpry(249-432); the PDB entries are of the full-length parent; also called PrySpry domain alone; source: E. coli Rosetta 2(DE3), purified (Ni-NTA, ULP1 digestion, size exclusion); not shown: 6xHis, N-terminal, cleaved; SUMO, N-terminal, cleaved
